The chains are these.
B1: mRNA-splicing (parent)
chain: AGUUGCUGCUGGGAGCUCCAGCACAGUGAAAUGGACAGAAGGGCAGAGCAA

In the data set the parent is B1. Kind of data set: exon inclusion enrichment index; higher = more inclusion; WT1 exon 5 minigene, HEK293.
Turning to AGUUACCACCGGGAGCCGCAGCACAGUGAAAUGGACAGAAGGGCAGAGCAA, the “exon inclusion enrichment index” value was 2.38.

Regarding AGUUCACACAGGGAGCUCUGGCACAGUGAAAUGGACAGAAGGGCAGAGCAA, the “exon inclusion enrichment index” value was 0.0251.

Regarding AGUUACCACUUGGAGCUCCAGCACAGUGAAAUGGACAGAAGGGCAGAGCAA, the “exon inclusion enrichment index” value was 1.23. To AGUUGAAGAAGGGAGCUCCAGCACAGUGAAAGCGACAGAAGGGCAGAGCAA belongs 0.75. To AGUUUCUUUUGGGAGCUCCAGCACAGUGAAAUGGACAGAAGGGAUGAGCAA belongs 0.41. As for AAGUCUUCUCGGGAGCUCCAGCACAGUGAAAUGGACAGAAGGGCAGAGCAA, the figure is 1.42.

For the variant AGUUGCUGCUGGGAGCUCCAGCACGGUGAAAUGGACAGAAGGGCAGAGCAA, the “exon inclusion enrichment index” value is 0.595. To AGUUCUUCUCGGGAGCUCCAGCACAGUGAAAUGGACAGAAGGGCAUCGCAA belongs 2.75. Consider AGUUGAAGAAGGGAGCUCCAGCACAGUGAAAUGGACAGAAGGGCAAGGCAA, for which the “exon inclusion enrichment index” value amounted to 0.249.

As to AGUUAUAUAUGGGAGCUCCAGCACAGUGAAAUGGACAGAAGGGACGAGCAA, the “exon inclusion enrichment index” value is 0.248. As to AGUUCGCGCCGGGAGCUCCCCCACAGUGAAAUGGACAGAAGGGCAGAGCAA, the “exon inclusion enrichment index” value came out at 2.03. Turning to AGUUACCACCGGGAGCACCAGCACAGUGAAAUGGACAGAAGGGCAGAGCAA, the “exon inclusion enrichment index” value came out at 1.89.

With AGUUCCCCUCGGGAGCUCCAGCACAGUGAAAUGGACAGAAGGGCAGAGCAA, the “exon inclusion enrichment index” value worked out at 0.0413. As for AGUUUCUUGAGGGAGCUCCAGCACAGUGAAAUGGACAGAAGGGCAGAGCAA, the figure is 0.128. On to AGUUGCUGCUGGGAGCUCCAGCACAGUGAAAUGGAGCGAAGGGCAGAGCAA, for which the “exon inclusion enrichment index” value amounted to 0.127.

In the case of AGUUCACACGAGGAGCUCCAGCACAGUGAAAUGGACAGAAGGGCAGAGCAA, the “exon inclusion enrichment index” value worked out at 1.71. AGUUCACACGCGGAGCUCCAGCACAGUGAAAUGGACAGAAGGGCAGAGCAA: the “exon inclusion enrichment index” value was found to be 2. To AGUUCGCGCCUCGAGCUCCAGCACAGUGAAAUGGACAGAAGGGCAGAGCAA belongs 1.54. To AGUUCUUCUGAGGAGCUCCAGCACAGUGAAAUGGACAGAAGGGCAGAGCAA belongs 2; to AGUUCUUCUCGGGAGCUCCAGCACAGUGAAAUGGACAGAAGCGCAGAGCAA, 3.76. For the variant AGUUGACGACGGGAGCUCCAGGCCAGUGAAAUGGACAGAAGGGCAGAGCAA, the “exon inclusion enrichment index” value amounted to 1.74. On to AAGUACCACCGGGAGCUCCAGCACAGUGAAAUGGACAGAAGGGCAGAGCAA, for which the “exon inclusion enrichment index” value is 1.76. With AGUUGAAGAAGGGAGCUCCAGCUAAGUGAAAUGGACAGAAGGGCAGAGCAA, the “exon inclusion enrichment index” value was 0.207. AGUUACAUAUGGGAGCUCCAGCACAGUGAAAUGGACAGAAGGGCAGAGCAA: the “exon inclusion enrichment index” value came out at 0.262.

Regarding AGUUCACACAGGGAGCUCCAGCACAGUGAAAUGGACAGAAGGGCAGGUCAA, the “exon inclusion enrichment index” value was 0.00361. To AGUUGAAGAAGGGAGCUCCAGCACAGUGAAAUGGACAGAAGGGCAUCGCAA belongs 1.79. To AGUUCGCGCCGGGAGCUCCAGCACAGUGAAAACGACAGAAGGGCAGAGCAA belongs 3.67. To AGUUAGGGAUGGGAGCUCCAGCACACUGAAAUGGACAGAAGGGCAGAGCAA belongs 0.00298; to ACAUUCUUUUGGGAGCUCCAGCACAGUGAAAUGGACAGAAGGGCAGAGCAA, 0.19; to AGUUGACUGCGGGAGCUCCAGCACAGUGAAAUGGACAGAAGGGCAGAGCAA, 1.91. Turning to AUUUACCACCGGGAGCUCCAGCACAGUGAAAUGGACAGAAGGGCAGAGCAA, the “exon inclusion enrichment index” value amounted to 3.56. As for AGUUGCUGCUGGGAGCUCCAGCACAGUGAAAUGGACAGAAGGUGAGAGCAA, the figure is 0.0978; as for AGUUCACAUCGGGAGCUCCAGCACAGUGAAAUGGACAGAAGGGCAGAGCAA, 2.03. For the variant AGUUCACAUGGGGAGCUCCAGCACAGUGAAAUGGACAGAAGGGCAGAGCAA, the “exon inclusion enrichment index” value was found to be 0.525. As to AGUUGCUGCUGGGAGCUAUAGCACAGUGAAAUGGACAGAAGGGCAGAGCAA, the “exon inclusion enrichment index” value was found to be 0.121. Turning to AGUUGACGACGGGAGCUCCAGCACAGAGAAAUGGACAGAAGGGCAGAGCAA, the “exon inclusion enrichment index” value worked out at 3.6. As for AGUUACCACCGGGAGCUCCAGCACAGACAAAUGGACAGAAGGGCAGAGCAA, the figure is 2.42; as for AGUUCACACAGGGAGCUCAUGCACAGUGAAAUGGACAGAAGGGCAGAGCAA, 0.00249. In the case of AGUUAGGGAUGGGAUCUCCAGCACAGUGAAAUGGACAGAAGGGCAGAGCAA, the “exon inclusion enrichment index” value is 0.000857.

Turning to AGUUACCACCGGGAGCUCCAGCACAUCGAAAUGGACAGAAGGGCAGAGCAA, the “exon inclusion enrichment index” value was determined as 3.63. Regarding AGUUCUUCUUCGGAGCUCCAGCACAGUGAAAUGGACAGAAGGGCAGAGCAA, the “exon inclusion enrichment index” value is 2.09.

Regarding AGUUGAAGAAGGCCGCUCCAGCACAGUGAAAUGGACAGAAGGGCAGAGCAA, the “exon inclusion enrichment index” value stood at 1.58. Regarding AGUUCGCGCCGGGAGCUCCAGCUCAGUGAAAUGGACAGAAGGGCAGAGCAA, the “exon inclusion enrichment index” value is 2.51. As to AGUUAUAUAUGGGACGUCCAGCACAGUGAAAUGGACAGAAGGGCAGAGCAA, the “exon inclusion enrichment index” value was determined as 0.0723. For AGUUGACGACGGGAGCUCCAGCACAGUGUCAUGGACAGAAGGGCAGAGCAA, the “exon inclusion enrichment index” value came to 2.97.

On to AGUUGACGACGGGAGCUGAAGCACAGUGAAAUGGACAGAAGGGCAGAGCAA, for which the “exon inclusion enrichment index” value came to 3.84.

In the case of AGUUAUAUAUGGGAGCGUCAGCACAGUGAAAUGGACAGAAGGGCAGAGCAA, the “exon inclusion enrichment index” value is 0.0294. Consider AGUUCGCGCCGUAAGCUCCAGCACAGUGAAAUGGACAGAAGGGCAGAGCAA, for which the “exon inclusion enrichment index” value was 0.404. For the variant AGUUCUUCUCGGGAGCUCCAGCAAGGUGAAAUGGACAGAAGGGCAGAGCAA, the “exon inclusion enrichment index” value is 2.06. To AGUUACCACCGGGAGCUCCAGGGCAGUGAAAUGGACAGAAGGGCAGAGCAA belongs 1.4; to AGUUGACGACGGGAGCUCCACGACAGUGAAAUGGACAGAAGGGCAGAGCAA, 3.98.
